Reference: patent US20190241654A1 (published 2019)

Target: T1, recombinant extracellular domain of CD47 (UniProt Q08722 19-139, limits assumed)
T1 construct: extracellular domain; Analyte flowed over the captured antibodies in SPR; also called CD47-ECD
Assay: SPR; antibody captured on anti-human Fc, CD47-ECD flowed 0-100 nM; 1:1 Langmuir
Experimental: The binding kinetics of anti-CD47 antibodies to the recombinant extracellular domain of CD47 were determined by using surface Plasmon resonance (SPR, MASS-1, Sierra Sensors; T200, Biacore, GE Healthcare Life Sciences). Anti-human Fc (P/N: BR-1008-39 (GE Healthcare Life Sciences)) was immobilized on a High Capacity Amine chip (P/N: SPR-AS-HCA, Sierra sensors) or CM5-S Chip (GE Healthcare Life Sciences). CD47 antibodies were captured on Human IgG FC and CD47-ECD was flowed over the surface at various concentrations ranging from zero (for double referencing) to 100 nM. In order to determine KD's, antibodies were ranked using a 1:1 Langmuir model.

T1 sequence (Q08722 19-139 limits assumed): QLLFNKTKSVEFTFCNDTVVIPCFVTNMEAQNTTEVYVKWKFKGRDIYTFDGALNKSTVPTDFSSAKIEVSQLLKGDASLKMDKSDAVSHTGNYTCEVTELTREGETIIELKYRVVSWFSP

B1: Ab1119/Ab480 (antibody, V domains shown)
VH: QMQLVQSGAEVKKPGSSVKVSCKASGFNIKDYYLHWVRQAPGKGLEWMGWIDPDQGDTEYAQKFQGRVTITRDRSTSTAYMELRSLRAEDTAVYYCNAAYGSSSYPMDYWGQGTLVTVSS
VL: NIQMTQSPSSLSASVGDRVTITCRASQDIHRYLSWFQQKPGKVPKHLIYRANRLVSGVPSRFSGSGSGTEFTLTISSLQPEDFATYYCLQYDEFPYTFGGGTKVEIK
notes: Variant of AbParental; also called LC Ab1119 / HC Ab480
Question: How did the Kd turn out when B1 was run?
Answer: 0.564 nM

Question: And the koff?
Answer: 0.00577 s⁻¹

Question: And the kon?
Answer: 1.02e+07 M⁻¹ s⁻¹

B2: Ab356/Ab1120 (antibody, V domains shown)
VH: QMQLVQSGAEVKKPGSSVKVSCKASGFNIKDYYLHWVRQAPGKGLEWMGWIDPDQGDTEYAQKFQGRVTITRDRSTSTAYMELRSLRAEDTAVYYCNAAYGSSSYPMDYWGQGTTVTVSS
VL: NIQMTQSPSSLSASVGDRVTITCRASQDIHRYLSWFQQKPGKVPKHLIYRYVRFVDGVPSRFSGSGSGTEFTLTISSLQPEDFATYYCLQYDEFPYTFGGGTKVEIK
notes: FR and CDR L2 variant; also called HC Ab356 / LC Ab1120
Question: For B2, which Kd is on record?
Answer: 1.02 nM

Question: And the koff?
Answer: 0.00274 s⁻¹

Question: And the kon?
Answer: 2.69e+06 M⁻¹ s⁻¹

B3: Ab356/Ab1121 (antibody, V domains shown)
VH: QMQLVQSGAEVKKPGSSVKVSCKASGFNIKDYYLHWVRQAPGKGLEWMGWIDPDQGDTEYAQKFQGRVTITRDRSTSTAYMELRSLRAEDTAVYYCNAAYGSSSYPMDYWGQGTTVTVSS
VL: NIQMTQSPSSLSASVGDRVTITCRASQDIHRYLSWFQQKPGKVPKHLIYRYIRFVDGVPSRFSGSGSGTEFTLTISSLQPEDFATYYCLQYDEFPYTFGGGTKVEIK
notes: FR and CDR L2 variant; Label printed HC first; the entry in numeric order (r442) is used; also called HC Ab356 / LC Ab1121
Question: How did the Kd turn out when B3 was run?
Answer: 1.08 nM

Question: And the koff?
Answer: 0.00272 s⁻¹

Question: And the kon?
Answer: 2.53e+06 M⁻¹ s⁻¹

B4: Ab356/Ab1122 (antibody, V domains shown)
VH: QMQLVQSGAEVKKPGSSVKVSCKASGFNIKDYYLHWVRQAPGKGLEWMGWIDPDQGDTEYAQKFQGRVTITRDRSTSTAYMELRSLRAEDTAVYYCNAAYGSSSYPMDYWGQGTTVTVSS
VL: NIQMTQSPSSLSASVGDRVTITCRASQDIHRYLSWFQQKPGKVPKHLIYRYERFVDGVPSRFSGSGSGTEFTLTISSLQPEDFATYYCLQYDEFPYTFGGGTKVEIK
notes: FR and CDR L2 variant; Label printed HC first; r445 used; also called HC Ab356 / LC Ab1122
Question: What does the source list for B4?
Answer: Kd: 77.9 nM; koff: 0.00411 s⁻¹; kon: 22800 M⁻¹ s⁻¹

B5: Ab356/Ab1127 (antibody, V domains shown)
VH: QMQLVQSGAEVKKPGSSVKVSCKASGFNIKDYYLHWVRQAPGKGLEWMGWIDPDQGDTEYAQKFQGRVTITRDRSTSTAYMELRSLRAEDTAVYYCNAAYGSSSYPMDYWGQGTTVTVSS
VL: NIQMTQSPSSLSASVGDRVTITCRASQDIHRYLSWFQQKPGKVPKHLIYRESRFVDGVPSRFSGSGSGTEFTLTISSLQPEDFATYYCLQYDEFPYTFGGGTKVEIK
notes: FR and CDR L2 variant; Label printed HC first; r460 used; also called HC Ab356 / LC Ab1127
Question: For B5, which Kd is on record?
Answer: 4.76 nM

Question: What about the koff of the same binder?
Answer: 0.0106 s⁻¹

Question: And the kon?
Answer: 2.22e+06 M⁻¹ s⁻¹

B6: Ab480/Ab1120 (antibody, V domains shown)
VH: QMQLVQSGAEVKKPGSSVKVSCKASGFNIKDYYLHWVRQAPGKGLEWMGWIDPDQGDTEYAQKFQGRVTITRDRSTSTAYMELRSLRAEDTAVYYCNAAYGSSSYPMDYWGQGTLVTVSS
VL: NIQMTQSPSSLSASVGDRVTITCRASQDIHRYLSWFQQKPGKVPKHLIYRYVRFVDGVPSRFSGSGSGTEFTLTISSLQPEDFATYYCLQYDEFPYTFGGGTKVEIK
notes: FR and CDR L2 variant; Label printed HC first although the head says LC/HC; also called HC Ab480 / LC Ab1120
Question: What does the source list for B6?
Answer: Kd: 1.05 nM; koff: 0.00238 s⁻¹; kon: 2.28e+06 M⁻¹ s⁻¹

B7: Ab480/Ab1121 (antibody, V domains shown)
VH: QMQLVQSGAEVKKPGSSVKVSCKASGFNIKDYYLHWVRQAPGKGLEWMGWIDPDQGDTEYAQKFQGRVTITRDRSTSTAYMELRSLRAEDTAVYYCNAAYGSSSYPMDYWGQGTLVTVSS
VL: NIQMTQSPSSLSASVGDRVTITCRASQDIHRYLSWFQQKPGKVPKHLIYRYIRFVDGVPSRFSGSGSGTEFTLTISSLQPEDFATYYCLQYDEFPYTFGGGTKVEIK
notes: FR and CDR L2 variant; Label printed HC first; r442 used; also called HC Ab480 / LC Ab1121
Question: B7 was tested. Which Kd did it give?
Answer: 1.14 nM

Question: What about the koff of the same binder?
Answer: 0.00303 s⁻¹

Question: What about the kon of the same binder?
Answer: 2.67e+06 M⁻¹ s⁻¹

B8: Ab480/Ab1122 (antibody, V domains shown)
VH: QMQLVQSGAEVKKPGSSVKVSCKASGFNIKDYYLHWVRQAPGKGLEWMGWIDPDQGDTEYAQKFQGRVTITRDRSTSTAYMELRSLRAEDTAVYYCNAAYGSSSYPMDYWGQGTLVTVSS
VL: NIQMTQSPSSLSASVGDRVTITCRASQDIHRYLSWFQQKPGKVPKHLIYRYERFVDGVPSRFSGSGSGTEFTLTISSLQPEDFATYYCLQYDEFPYTFGGGTKVEIK
notes: FR and CDR L2 variant; Label printed HC first; r445 used; also called HC Ab480 / LC Ab1122
Question: Which Kd does the source give for B8 here?
Answer: 4.68 nM

Question: What about the koff of the same binder?
Answer: 0.0109 s⁻¹

Question: And the kon?
Answer: 2.33e+06 M⁻¹ s⁻¹
